Experimental findings from the supplement of paper PMC5998384 are described below.

For data set [1], the system named is HeLa Kyoto. Briefly: solubility in G1/S (NP-40 vs SDS abundance) (log2 ratio); higher = more soluble. As to conditions: cell cycle stage: G1/S.
Data set [2] deals with HeLa Kyoto. As to the kind of experiment: melting temperature (median over replicates), in situ; higher = more thermally stable.
Data set [3] relates to HeLa Kyoto. Briefly: thermal stability score vs G1/S (z-score of summed log2 fold changes over temperatures); higher = more thermally stable than in G1/S.
The subject of data set [4] is HeLa Kyoto. As to the kind of experiment: solubility change mitosis vs G1/S (difference of NP-40 vs SDS log2 ratios) (log2 ratio difference); higher = more soluble in mitosis.
Where [5] appears, read: cell cycle stage: early G1 (4.5 h after nocodazole release).
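Throughout, for melting temperature (median over replicates), in situ: HeLa Kyoto cells synchronized by double thymidine or nocodazole block, proteins quantified by TMT10plex mass spectrometry, three independent biological replicates.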
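Throughout, for solubility change mitosis vs G1/S (difference of NP-40 vs SDS log2 ratios): synchronized HeLa Kyoto cells (double thymidine block for G1/S, nocodazole release for mitosis), protein amounts in NP-40 versus SDS lysates quantified by mass spectrometry, three biological replicates.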
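Throughout, for solubility in G1/S (NP-40 vs SDS abundance): HeLa Kyoto cells arrested at G1/S by double thymidine block, proteins quantified by TMT10plex mass spectrometry in mild NP-40 versus SDS extracts, three biological replicates.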
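Throughout, for thermal stability score vs G1/S (z-score of summed log2 fold changes over temperatures): synchronized HeLa Kyoto cells, proteins quantified by TMT10plex mass spectrometry, three biological replicates, mitosis taken 0.5 h after nocodazole release, G1/S directly after double thymidine block.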

As to “MTDYGEEQRNELEALESIYPDSFTVLSENPPSFTITVTSEAGENDETVQTTLKFTYSEKYPDEAPLYEIFSQENLEDNDVSDILKLLALQAEENLGMVMIFTLVTAVQEKLNEIVDQIKTRREEEKKQKEKEAEEAEKQLFHGTPVTIENFLNWKAKFDAELLEIKKKRMKEEEQAGKNKLSGKQLFETDHNLDTSDIQFLEDAGNNVEVDESLFQEMDDLELEDDEDDPDYNPADPESDSAD [RWDD1]”, the “solubility in G1/S (log2)” value in the data set with HeLa Kyoto [1] came to 0.348. Further, the melting temperature with HeLa Kyoto [2] (cell cycle stage: G1/S) was 52.7 °C; in the data set on HeLa Kyoto [2] (cell cycle stage: mitosis), 54 °C. The thermal stability score is 0.855 in the data set with HeLa Kyoto [3] (setting [5]) and 0.947 with HeLa Kyoto [3] (cell cycle stage: mitosis). Besides, the “solubility change mitosis (log2)” value with HeLa Kyoto [4] was 0.0192.

Regarding “MARNAEKAMTALARFRQAQLEEGKVKERRPFLASECTELPKAEKWRRQIIGEISKKVAQIQNAGLGEFRIRDLNDEINKLLREKGHWEVRIKELGGPDYGKVGPKMLDHEGKEVPGNRGYKYFGAAKDLPGVRELFEKEPLPPPRKTRAELMKAIDFEYYGYLDEDDGVIVPLEQEYEKKLRAELVEKWKAEREARLARGEKEEEEEEEEEINIYAVTEEESDEEGSQEKGGDDSQQKFIAHVPVPSQQEIEEALVRRKKMELLQKYASETLQAQSEEARRLLGY [ISY1]”, the “solubility in G1/S (log2)” value with HeLa Kyoto [1] came out at 0.128. In addition, the melting temperature was 46.7 °C in the data set with HeLa Kyoto [2] (cell cycle stage: G1/S) and 51.2 °C with HeLa Kyoto [2] (cell cycle stage: mitosis). The thermal stability score in the data set on HeLa Kyoto [3] (setting [5]) is -2.75; in the data set with HeLa Kyoto [3] (cell cycle stage: mitosis) it was -1.6. Also, the “solubility change mitosis (log2)” value in the data set with HeLa Kyoto [4] came to 0.254.

Turning to “MWRLVPPKLGRLSRSLKLAALGSLLVLMVLHSPSLLASWQRNELTDRRFLQLNKCPACFGTSWCRRFLNGQVVFEAWGRLRLLDFLNVKNVYFAQYGEPREGGRRRVVLKRLGSQRELAQLDQSICKRATGRPRCDLLQAMPRTEFARLNGDVRLLTPEAVEGWSDLVHCPSQRLLDRLVRRYAETKDSGSFLLRNLKDSERMQLLLTLAFNPEPLVLQSFPSDEGWPFAKYLGACGRMVAVNYVGEELWSYFNAPWEKRVDLAWQLMEIAEQLTNNDFEFALYLLDVSFDNFAVGPRDGKVIIVDAENVLVADKRLIRQNKPENWDVWYESKFDDCDKEACLSFSKEILCARATVDHNYYAVCQNLLSRHATWRGTSGGLLHDPPSEIAKDGRLEALLDECANPKKRYGRFQAAKELREYLAQLSNNVR [C3ORF58]”, the “solubility in G1/S (log2)” value with HeLa Kyoto [1] came out at 0.0343. For the same sequence, the results for the melting temperature in the data set with HeLa Kyoto [2] (cell cycle stage: G1/S) and in the data set on HeLa Kyoto [2] (cell cycle stage: mitosis) were 53 °C and 52.3 °C, respectively. The figures for the thermal stability score in the data set with HeLa Kyoto [3] (setting [5]) and with HeLa Kyoto [3] (cell cycle stage: mitosis) were -0.149 and -0.787, respectively. For the same sequence, the “solubility change mitosis (log2)” value in the data set with HeLa Kyoto [4] is -0.109.

Regarding “MDQPFTVNSLKKLAAMPDHTDVSLSPEERVRALSKLGCNITISEDITPRRYFRSGVEMERMASVYLEEGNLENAFVLYNKFITLFVEKLPNHRDYQQCAVPEKQDIMKKLKEIAFPRTDELKNDLLKKYNVEYQEYLQSKNKYKAEILKKLEHQRLIEAERKRIAQMRQQQLESEQFLFFEDQLKKQELARGQMRSQQTSGLSEQIDGSALSCFSTHQNNSLLNVFADQPNKSDATNYASHSPPVNRALTPAATLSAVQNLVVEGLRCVVLPEDLCHKFLQLAESNTVRGIETCGILCGKLTHNEFTITHVIVPKQSAGPDYCDMENVEELFNVQDQHDLLTLGWIHTHPTQTAFLSSVDLHTHCSYQLMLPEAIAIVCSPKHKDTGIFRLTNAGMLEVSACKKKGFHPHTKEPRLFSICKHVLVKDIKIIVLDLR [STAMBPL1]”, the “solubility in G1/S (log2)” value in the data set with HeLa Kyoto [1] was -0.0141. Moreover, the melting temperature in the data set with HeLa Kyoto [2] (cell cycle stage: G1/S) stood at 50.3 °C; with HeLa Kyoto [2] (cell cycle stage: mitosis), 51 °C. Besides, the results for the thermal stability score in the data set on HeLa Kyoto [3] (setting [5]) and in the data set on HeLa Kyoto [3] (cell cycle stage: mitosis) were -0.397 and -0.032, respectively. Further, the “solubility change mitosis (log2)” value with HeLa Kyoto [4] is -0.137.

As for “MRERIWAPPLLLLLPLLLPPPLWGGPPDSPRRELELEPGPLQPFDLLYASGAAAYYSGDYERAVRDLEAALRSHRRLREIRTRCARHCAARHPLPPPPPGEGPGAELPLFRSLLGRARCYRSCETQRLGGPASRHRVSEDVRSDFQRRVPYNYLQRAYIKLNQLEKAVEAAHTFFVANPEHMEMQQNIENYRATAGVEALQLVDREAKPHMESYNAGVKHYEADDFEMAIRHFEQALREYFVEDTECRTLCEGPQRFEEYEYLGYKAGLYEAIADHYMQVLVCQHECVRELATRPGRLSPIENFLPLHYDYLQFAYYRVGEYVKALECAKAYLLCHPDDEDVLDNVDYYESLLDDSIDPASIEAREDLTMFVKRHKLESELIKSAAEGLGFSYTEPNYWIRYGGRQDENRVPSGVNVEGAEVHGFSMGKKLSPKIDRDLREGGPLLYENITFVYNSEQLNGTQRVLLDNVLSEEQCRELHSVASGIMLVGDGYRGKTSPHTPNEKFEGATVLKALKSGYEGRVPLKSARLFYDISEKARRIVESYFMLNSTLYFSYTHMVCRTALSGQQDRRNDLSHPIHADNCLLDPEANECWKEPPAYTFRDYSALLYMNDDFEGGEFIFTEMDAKTVTASIKPKCGRMISFSSGGENPHGVKAVTKGKRCAVALWFTLDPLYRELERIQADEVIAILDQEQQGKHELNINPKDEL [P3H2]”, the “solubility in G1/S (log2)” value in the data set on HeLa Kyoto [1] is -0.176. The figures for the melting temperature in the data set on HeLa Kyoto [2] (cell cycle stage: G1/S) and in the data set on HeLa Kyoto [2] (cell cycle stage: mitosis) were 53.7 °C and 53.9 °C, respectively. In addition, the values for the thermal stability score with HeLa Kyoto [3] (setting [5]) and with HeLa Kyoto [3] (cell cycle stage: mitosis) were 4.77 and 5.82, respectively. The “solubility change mitosis (log2)” value in the data set on HeLa Kyoto [4] was -0.0732.

Consider “MGEFNEKKTTCGTVCLKYLLFTYNCCFWLAGLAVMAVGIWTLALKSDYISLLASGTYLATAYILVVAGTVVMVTGVLGCCATFKERRNLLRLYFILLLIIFLLEIIAGILAYAYYQQLNTELKENLKDTMTKRYHQPGHEAVTSAVDQLQQEFHCCGSNNSQDWRDSEWIRSQEAGGRVVPDSCCKTVVALCGQRDHASNIYKVEGGCITKLETFIQEHLRVIGAVGIGIACVQVFGMIFTCCLYRSLKLEHY [CD151]”, for which the “solubility in G1/S (log2)” value in the data set on HeLa Kyoto [1] was -0.288. In addition, the melting temperature stood at 60 °C in the data set on HeLa Kyoto [2] (cell cycle stage: G1/S) and 61.3 °C with HeLa Kyoto [2] (cell cycle stage: mitosis). Further, the thermal stability score in the data set on HeLa Kyoto [3] (setting [5]) was 0.401; in the data set with HeLa Kyoto [3] (cell cycle stage: mitosis), -1.63. For the same sequence, the “solubility change mitosis (log2)” value with HeLa Kyoto [4] came to 0.0099.
